In patent US20220218614A1, “IONIZABLE CATIONIC LIPIDS AND LIPID NANOPARTICLES, AND METHODS OF SYNTHESIS AND USE THEREOF” (Tidal Therapeutics, Inc., priority 2020, published 2022):
“Also recorded” adds a separate entry of the source.

B1: OKT8: anti-CD8 Fab, SEQ ID NO: 8 and 9 (antibody)
heavy: QVQLVQSGAEDKKPGASVKVSCKASGFNIKDTYIHWVRQAPGQGLEWMGRIDPANDNTLYASKFQGRVTITADTSSNTAYMELSSLRSEDTAVYYCGRGYGYYVFDHWGQGTTVTVSSASTKGPSVFPLAPSSKSTSGGTAALGCLVKDYFPEPVTVSWNSGALTSGVHTFPAVLQSSGLYSLSSVVTVPSSSLGTQTYICNVNHKPSNTKVDKKVEPKSSDKTHTC
light: DIVMTQSPSSLSASVGDRVTITCRTSRSISQYLAWYQEKPGKAPKLLIYSGSTLQSGVPSRFSGSGSGTDFTLTISSLQPEDFATYYCQQHNENPLTFGQGTKVEIKRTVAAPSVFIFPPSDEQLKSGTASVVCLLNNFYPREAKVQWKVDNALQSGNSQESVTEQDSKDSTYSLSSTLTLSKADYEKHKVYACEVTHQGLSSPVTKSFNRGES
B2: Teplizumab: anti-CD3 Teplizumab bDS Fab, SEQ ID NO: 54 and 55 (antibody)
heavy: QVQLVQSGGGVVQPGRSLRLSCKASGYTFTRYTMHWVRQAPGKGLEWIGYINPSRGYTNYNQKVKDRFTISRDNSKNTAFLQMDSLRPEDTGVYFCARYYDDHYCLDYWGQGTPVTVSSASTKGPSVFPLAPSSKSTSGGTAALGCLVKDYFPEPVTVSWNSGALTSGVHTCPAVLQSSGLYSLSSVVTVPSSSLGTQTYICNVNHKPSNTKVDKKVEPKSSDKTHTCHHHHHH
light: DIQMTQSPSSLSASVGDRVTITCSASSSVSYMNWYQQTPGKAPKRWIYDTSKLASGVPSRFSGSGSGTDYTFTISSLQPEDIATYYCQQWSSNPFTFGQGTKLQITRTVAAPSVFIFPPSDEQLKSGTASVVCLLNNFYPREAKVQWKVDNALQSGNSQESVTEQDSKDSTYSLCSTLTLSKADYEKHKVYACEVTHQGLSSPVTKSFNRGES
B3: BDSn: anti-CD8 Nanobody, SEQ ID NO: 77 (protein)
VHH: EVQLVESGGGLVQAGGSLRLSCAASGSTFSDYGVGWFRQAPGKGREFVADIDWNGEHTSYADSVKGRFATSRDNAKNTAYLQMNSLKPEDTAVYYCAADALPYTVRKYNYWGQGTQVTVSSGGCGGHHHHHH
modifications: conjugate

Key:
Assay type in all cases: cell-based
[1] = system: human CD8 T cells; experiment: Transfection of human CD8 T cells with Fab-targeted Cy5/GFP mRNA LNPs; conditions: Lipid 8 LNP, Cy5/GFP mRNA approximately 2.5 μg/mL, approximately 24 hr, Fab conjugate post-inserted
Procedure: LNPs were prepared using the mixing process described in Example 6, the buffer exchange process described in Example 21. hSP34 and TRX2 Fab-lipid conjugates generated from methods described in Example 4 and a non-T cell specific anti-HER2 lipid-conjugate (Nellis D F, Ekstrom D L, Kirpotin D B, Zhu J, Andersson R, Broadt T L, Ouellette T F, Perkins S C, Roach J M, Drummond D C, Hong K, Marks J D, Park J W and Giardina S L (2005) Preclinical manufacture of an anti-HER2 scFv-PEG-DSPE, liposome-inserting conjugate. 1. Gram-scale production and purification. Biotechnol Prog 21:205-220) were post-inserted at various densities (SP34 0.6-17 g/mol; TRX2 3-9 g/mol; anti-HER2 17 g/mol) into LNPs containing Lipid 8, Cy5 labeled GFP mRNA and GFP mRNA (1:9 Cy5:GFP mass ratio) by adding conjugate and LNPs together and heating the solution without mixing in a thermal cycler at 60 C for 60 min and cooled to 4° C. for 3-5 min. […] After transfection, LNP binding efficiency (Cy5) and transfection efficiency (GFP) was evaluated by flow cytometry. Supernatants were measured for human IFNγ concentration using a commercially available ELISA kit under manufacturers recommended conditions (R&D Systems Duoset). […]

[2] = system: human CD3 T cells; experiment: Transfection of human CD3 T cells (CD8 and CD4 subsets) with Fab/Nb-targeted LNPs; conditions: targeted Lipid 8 LNP (Lipid 5 in Example 43), GFP mRNA approximately 2.5 μg/mL, approximately 24 hr
Procedure: LNPs were prepared using the mixing process described in Example 6, the buffer exchange process described below in Example 21. Using methods similar to Example 12, hSP34 and TRX2 Fab-lipid conjugates and a non-T cell specific anti-HER2 lipid-conjugate (Nellis D F, Ekstrom D L, Kirpotin D B, Zhu J, Andersson R, Broadt T L, Ouellette T F, Perkins S C, Roach J M, Drummond D C, Hong K, Marks J D, Park J W and Giardina S L (2005) Preclinical manufacture of an anti-HER2 scFv-PEG-DSPE, liposome-inserting conjugate. 1. Gram-scale production and purification. Biotechnol Prog 21:205-220) were post-inserted at various densities (SP34 0.25-17 g/mol; TRX2 0.25-9 g/mol; SP34+TRX2 0.25-9 g/mol each conjugate; anti-HER2 17 g/mol) into LNPs containing Lipid 8 and anti-CD20 targeting CART mRNA. Transfections were performed with human CD3 T cells at approximately 2.5 μg/mL mRNA for approximately 24 hr. For FACS analysis T cells were stained with M1 antibody (Sigma, F3040) that bind a N-terminus FLAG-tag variant sequence on the TTR-023 CAR (sequence provided below) in addition to staining for CD69 (Biolegend, 310930) and CD4 (Biolegend, 344648) to differentiate CD8 from CD4 cells.
LNPs were prepared using the mixing process described in Example 6, the buffer exchange process described in Example 21. Using methods similar to Example 12, hSP34, TRX2, and Ibalizumab Fab-lipid conjugates and a non-T cell specific anti-HER2 lipid-conjugate were post-inserted at various densities (specified in FIGS. 20A and 20B into LNPs containing Lipid 8 and Cy5/GFP mRNA. Transfections were performed with human CD3 T cells at approximately 2.5 μg/mL mRNA for approximately 24 hr and stained for CD69 (Biolegend, 310930) and CD4 (Biolegend, 344648) to differentiate CD8 from CD4 cells by FACS analysis.
LNPs were prepared using the mixing process described in Example 6, the buffer exchange process described in Example 21. Conjugates were generated using a method similar to that of Example 4 except 0.025, 0.1, 0.5 mM TCEP was used for hSP34 DS, 0.025, 0.2, 2 mM TCEP was used for hSP34-hlam NoDS (interchain disulfide knockout) for reduction prior to conjugation and the conjugation reactions were performed at 37 C for 2 hr. SDS-PAGE (FIGS. 65A, 65B) was performed using the manufacturers recommended conditions with 1 ug of protein (Thermo, 4-12% Bis-Tris MiniGel). RP-HPLC (FIGS. 65C, 65D) was performed using an Agilent 300 SB-C8 at 0.5 mL/min with a column temperature of 60° C., Mobile Phase A: Water with 0.1% TFA, Mobile Phase B: Acetonitrile with 0.1% TFA, Gradient % B: 0 min 5%, 1 min 5%, 6.5 min 95%, 8 min 95% injecting 10 ul with a target of 1-25 ug of protein. Using methods similar to Example 12, ant-CD3 hSP34 (with and without natural interchain disulfide, DS (with interchain disulfide) vs. NoDS (without interchain disulfide), see sequences below) PEG-lipid conjugated Fabs were post-inserted at various Fab densities (6, 12, 17 g Fab/mol total lipid) into LNPs containing Lipid 8 and Cy5/GFP mRNA. Transfections were performed with human CD3 T cells at approximately 2.5 μg/mL mRNA for approximately 24 hr. Levels of transfection of CD3 T cells was measured by flow cytometry.
LNPs were prepared using the mixing process described in Example 6, the buffer exchange process described in Example 21. Conjugates were generated using a method similar to that of Example 4 except 0.1 mM TCEP was used for reduction prior to conjugation and the conjugation reaction was performed at 37 C for 2 hr. […]

[3] = system: IFNγ; experiment: Human IFNγ ELISA of T cell culture supernatants after LNP transfection; conditions: T cells approximately 24 hr after targeted LNPs at approximately 2.5 μg/mL mRNA
Procedure: LNPs were prepared using the mixing process described in Example 6, the buffer exchange process described in Example 21. hSP34 and TRX2 Fab-lipid conjugates generated from methods described in Example 4 and a non-T cell specific anti-HER2 lipid-conjugate (Nellis D F, Ekstrom D L, Kirpotin D B, Zhu J, Andersson R, Broadt T L, Ouellette T F, Perkins S C, Roach J M, Drummond D C, Hong K, Marks J D, Park J W and Giardina S L (2005) Preclinical manufacture of an anti-HER2 scFv-PEG-DSPE, liposome-inserting conjugate. 1. Gram-scale production and purification. Biotechnol Prog 21:205-220) were post-inserted at various densities (SP34 0.6-17 g/mol; TRX2 3-9 g/mol; anti-HER2 17 g/mol) into LNPs containing Lipid 8, Cy5 labeled GFP mRNA and GFP mRNA (1:9 Cy5:GFP mass ratio) by adding conjugate and LNPs together and heating the solution without mixing in a thermal cycler at 60 C for 60 min and cooled to 4° C. for 3-5 min. […] After transfection, LNP binding efficiency (Cy5) and transfection efficiency (GFP) was evaluated by flow cytometry. Supernatants were measured for human IFNγ concentration using a commercially available ELISA kit under manufacturers recommended conditions (R&D Systems Duoset).
IFN-γ was assayed using an R&D Duoset […] ELISA kit, PN DY285B. […] Optical density at 450 nm was read on a Spectramax M5 plate reader. […]

Molecule	transfection (% GFP+, GFP MFI) and binding (% Cy5+, Cy5 MFI), in words [1]	% GFP transfection and GFP expression (MFI) of CD8 and CD4 T cells, in words [2]	IFNγ secretion into supernatant, in words [3]
B1	high levels of particle binding	–	–
B2	–	lower levels of GFP expression	higher levels of IFNγ secretion than SP34
B3	–	higher % transfection (FIG. 73A) and GFP expression levels (FIG. 73B) than anti-CD8 TRX2; also recorded: transfection and translation was only observed in the CD8 T cell population	did not mediate substantial IFNγ secretion levels over non-targeted mutOKT8 Fab
